Experimental data reported in patent US11299526B2, “p53-BAD fusion proteins” (University of Utah Research Foundation, priority 2018, dated 2022).
“Also recorded” adds a separate entry of the source.

How the values were obtained:
[1] = Preliminary toxicity study, IP injected polymer and polymer-Ad; conditions: mouse, in vivo
[2] = system: Kuramochi cells; experiment: Paclitaxel cell viability assay; format: cell-based; conditions: Homo sapiens, 48 hr
Protocol: Paclitaxel powder (LC Laboratories; Wobum, Mass.) was dissolved in DMSO to 10 mg/mL to make a stock solution. To determine the paclitaxel IC50 in Kuramochi cells, 8×10^3 Kuramochi cells were seeded in 96-well plates 24 hr prior to drug treatment. Paclitaxel in complete growth medium was added at increasing concentrations, and the cells were incubated for 48 hr. The Aqueous One Cell Proliferation Assay (Promega) was used to assess cell viability. For gene transfection and paclitaxel combination treatment, the cells were transfected first. 4 hr after transfection, paclitaxel was added at 100 nM or 200 nM, and the cells were incubated for 48 hr as previously optimized by our lab.
After confirming the high apoptotic potential of p53-Bad/112,136, we wanted to test the possibility of combining p53-Bad/112,136 gene therapy with paclitaxel, a standard-of-care for HGSC. Based on a genomic and gene expression profile study with 47 ovarian cancer cell lines, Kuramochi was identified to be the best model for high grade serous ovarian cancer, with the highest genetic similarity to ovarian tumors. The IC50 of paclitaxel was determined using a cell viability […] assay. Kuramochi cells were incubated with different paclitaxel concentrations ranging from 0 nM to 1000 nM for 48 hr. The IC50 value was determined to be approximately 100 nM. […]

[3] = system: OVCAR-3 cells; conditions: cited from earlier work
[4] = system: SKOV-3 cells; experiment: Mitochondrial localization of EGFP-tagged constructs, fluorescence microscopy with PCC analysis; format: cell-based, human; conditions: mitochondria stained with MitoTracker Red, CMV promoter
Protocol: (§1) Images of p53-BH3 (EGFP tagged on N-terminus) can be acquired 18 h post-transfection with an Olympus IX71F fluorescence microscope with a F-View Monochrome CCD camera and analyzed with ImageJ using Pearson's correlation coefficient (PCC) and post Costes' algorithm. PCC≥0.6 are considered to be colocalized. […] Apoptosis assay: 7-AAD assay (measuring late-stage apoptosis) can be performed as done before as an initial screen. As before, cells can be stained with […] working solution of 7-aminoactinomycin D (7-AAD) 24 hr post-transfection. Cells can be analyzed and gated for EGFP with the same fluorescence intensity to ensure equal detection of proteins
24 hr post-transfection, cells were stained in PBS solution containing 200 nM MitoTracker Red CM-H2Xros (Thermo Scientific), 1:100 dilution of ProLong Live Antifade Reagent (Thermo Scientific), and 2 μM Hoechst stain. The cells were incubated for 20 minutes protected from light. Images were acquired using a Nikon AIR fluorescence confocal microscope with 60× Plan Apo Oil immersion objective (core facility, University of Utah). The images were visualized using NIS element software with built in EGFP, MitoTracker Red, and DAPI filters. Co-localization analyses were performed using the JACoP plugin for ImageJ software. […] The experiments were performed three times with 10 cells analyzed each experiment for a total of 30 cells per gene constructs.

[5] = system: p53-Luc Cis-Reporter; experiment: Nuclear transcriptional activity p53 luciferase reporter gene assay; format: cell-based; conditions: SKOV-3, OVCAR-3, ID8 and Kuramochi cells, 24 hr post-transfection
Protocol: All constructs (3.5 μg of DNA) were co-transfected with 3.5 μg of p53-Luc Cis-reporter plasmid encoding a firefly luciferase gene (Agilent Technologies; Santa Clara, Calif.) and 0.35 μg of pRL-SV40 plasmid encoding a Renilla luciferase gene (Promega; Madison, Wis.). Renilla luciferase was used to normalize for transfection efficiency in respective cell lines. The Dual-Glo Luciferase Assay System (Promega) was used to determine the firefly luciferase activity and Renilla luciferase activity per manufacturer's recommendation 24 hr post-transfection as before. The luminescence signal was detected using the Infinite M1000 microplate reader (Tecan; Männedorf, Switzerland). The Dual-Glo luciferase assay was performed in triplicate.

[6] = system: SKOV-3 cells; experiment: 7-AAD late apoptosis/cell death assay; format: cell-based, human; conditions: SKOV-3, 24 hr post-transfection
Protocol: as §1
(§2) 7-AAD assay was performed as before (14, 15). Briefly, the cells were collected 24 hr post-transfection. The cell pellets were resuspended in 300 μL of 1.25 μg/mL 7-AAD in PBS. The cells were incubated on ice for 20 minutes, and analyzed using FACS-Canto-II similar to the TMRE assay. The cells were gated for EGFP positive (excitation at 480 nm and emission at 535 nm) and 7-AAD positive (excitation at 496 nm and emission at 785 nm). The constructs were assayed in triplicates. The lowest and highest values were set at 0% and 100%, respectively (relative 7-AAD) as before (14).

[7] = system: ID8 cells; experiment: 7-AAD late apoptosis/cell death assay; format: cell-based, mouse; conditions: ID8, 24 hr post-transfection
Protocol: as §1, §2

[8] = system: SKOV-3, OVCAR-3, ID8 and Kuramochi cells; experiment: 7-AAD late apoptosis/cell death assay, statements for all four ovarian cancer cell lines; format: cell-based, human, mouse; conditions: 24 hr post-transfection
Protocol: as §2

[9] = system: OVCAR-3 cells; experiment: TMRE mitochondrial depolarization (MOMP) assay; format: cell-based, human; conditions: OVCAR-3, 20 hr post-transfection
Source text: […] Flow cytometry can be used to analyze […] cells using the PE-A channel (excitation at 561 nm with emission at 585/15). Loss in TMRE intensity represents mitochondrial depolarization, which correlates to mitochondrial outer membrane permeabilization (MOMP). […] Bad alone constructs may have some activity, but may be weaker or slower acting than p53-Bad constructs. This underscores the importance of using apoptotic, cell death, proliferation, and oncogenic assays to paint a complete picture of construct potency/efficacy.
(§3) […] Cells were incubated for 30 minutes at 37° C. then analyzed using flow cytometry (FACS-Canto-II with FACS Diva software, core facility, University of Utah) as described before. EGFP was excited at 488 nm with emission filter 530/35, and TMRE was excited at 561 nm with emission filter 585/15. The loss in TMRE intensity indicates mitochondrial depolarization, which correlates with an increase in the permeabilization of the mitochondrial outer membrane (MOMP). Each construct was transfected independently and tested in triplicates (n=3). The lowest MOMP value was set as 0%, and the highest MOMP value as 100% as before.

[10] = system: SKOV-3, OVCAR-3, ID8 and Kuramochi cells; experiment: TMRE mitochondrial depolarization (MOMP) assay, statements for the four ovarian cancer cell lines; format: cell-based, human, mouse; conditions: four cell lines of FIG. 17, 20 hr post-transfection
Protocol: as §3

[11] = system: Kuramochi cells; experiment: 7-AAD assay of constructs combined with paclitaxel; format: cell-based, human; conditions: paclitaxel 100 nM or 200 nM added 4 hr after transfection, 48 hr
Protocol: The IC50 of paclitaxel was determined using a cell viability MTT assay. Kuramochi cells were incubated with different paclitaxel concentrations ranging from 0 nM to 1000 nM for 48 hr. […] A control group without paclitaxel (0 nM) was also included. The cells were incubated for 48 hr before the 7-AAD assay.

Row | Molecule | subcellular localization of EGFP-tagged construct [4] | nuclear transcriptional activity (firefly luciferase) [5] | apoptosis / cell death (7-AAD) [6] | apoptosis / cell death (7-AAD) [7] | apoptosis / cell death (7-AAD) [8] | mitochondrial depolarization / % MOMP induction (TMRE) [9] | mitochondrial depolarization / % MOMP induction (TMRE) [10] | also measured
1 | poly (cystaminebisacryl-amide-diaminohexane)-polyethylene glycol linked to RGD (Arg-Gly-Asp) [polymer alone] |  |  |  |  |  |  |  | immunogenicity at injection site [1]: no swelling, inflammation, or redness at injection site
2 | CC(=O)O[C@H]1C(=O)[C@@]2(C)[C@H]([C@H](OC(=O)c3ccccc3)[C@]3(O)C[C@H](OC(=O)[C@H](O)[C@@H](NC(=O)c4ccccc4)c4ccccc4)C(C)=C1C3(C)C)[C@]1(OC(C)=O)CO[C@@H]1C[C@@H]2O [paclitaxel] |  |  |  |  |  |  |  | IC50 [2]: ~0.1 µM
3 | CN(C)CC[C@H](CSc1ccccc1)Nc1ccc(S(=O)(=O)NC(=O)c2ccc(N3CCN(Cc4ccccc4-c4ccc(Cl)cc4)CC3)cc2)cc1[N+](=O)[O-] [ABT-737] |  |  |  |  |  |  |  | IC50 [3]: 10 ± 4 µM
4 | Bad/112,136: Bad with S112A and S136A mutations (SEQ ID NO:2), no p53, negative control (protein, mutated BAD peptide) MFQIPEFEPSEQEDSSSAERGLGPSPAGDGPSGSGKHHRQAPGLLWDASHQQEQPTSSSHHGGAGAVEIRSRHSAYPAGTEDDEGMGEEPSPFRGRSRAAPPNLWAAQRYGRELRRMSDEFVDSFKKGLPRPKSAGTATQMRQSSSWTRVFQSWWDRNLGRGSSAPSQ | mitochondrial localization; also recorded: effectively localize to the mitochondria | do not activate firefly luciferase | inactive | inactive | comparable to EGFP (negative control) except in OVCAR-3 cells; also recorded: apoptotic activity diminishes | some activity | significant level of % MOMP | effect of deleting the BH3 domain of Bad on activity (TMRE) ([9]; FIG. 20): significantly reduces the activity; effect of added paclitaxel on the activity of the construct (7-AAD) [11]: does not seem to increase
5 | Bad: EGFP-tagged human Bad without p53 (SEQ ID NO:1), negative control (protein, UniProt Q92934 1-168, looked up, EGFP tag) Bcl2-associated agonist of …: MFQIPEFEPSEQEDSSSAERGLGPSPAGDGPSGSGKHHRQAPGLLWDASHQQEQPTSSSHHGGAGAVEIRSRHSSYPAGTEDDEGMGEEPSPFRGRSRSAPPNLWAAQRYGRELRRMSDEFVDSFKKGLPRPKSAGTATQMRQSSSWTRVFQSWWDRNLGRGSSAPSQ | found in the cytoplasm | do not activate firefly luciferase | inactive | inactive | comparable to EGFP (negative control) except in OVCAR-3 cells; also recorded: apoptotic activity diminishes | some activity | significant level of % MOMP | 
